From paper PMC4775402 (Pharmacological research, 2016)

Key:
WT P2RY1 = WT P2RY1 (Homo sapiens, UniProt P47900); experiment: Label-free DMR agonist response, HEK293T expressing WT P2RY1; format: cell-based
ΔPDZ P2RY1 = ΔPDZ P2RY1 (Homo sapiens, UniProt P47900); experiment: Label-free DMR agonist response, HEK293T expressing ΔPDZ P2RY1; format: cell-based
WT P2RY12 = WT P2RY12 (Homo sapiens, UniProt Q9H244); experiment: Label-free DMR agonist response, HEK293T expressing WT P2RY12; format: cell-based
ΔPDZ P2RY12 = ΔPDZ P2RY12 (Homo sapiens, UniProt Q9H244); experiment: Label-free DMR agonist response, HEK293T expressing ΔPDZ P2RY12; format: cell-based
WT ADRA1D = conditions: cited from earlier work
ΔPDZ ADRA1D = conditions: cited from earlier work
WT CXCR5 = target: T1, WT CXCR5 (Homo sapiens, UniProt P32302); experiment: Label-free DMR agonist response, HEK293T expressing WT CXCR5; format: cell-based
T1 sequence (P32302 1-372): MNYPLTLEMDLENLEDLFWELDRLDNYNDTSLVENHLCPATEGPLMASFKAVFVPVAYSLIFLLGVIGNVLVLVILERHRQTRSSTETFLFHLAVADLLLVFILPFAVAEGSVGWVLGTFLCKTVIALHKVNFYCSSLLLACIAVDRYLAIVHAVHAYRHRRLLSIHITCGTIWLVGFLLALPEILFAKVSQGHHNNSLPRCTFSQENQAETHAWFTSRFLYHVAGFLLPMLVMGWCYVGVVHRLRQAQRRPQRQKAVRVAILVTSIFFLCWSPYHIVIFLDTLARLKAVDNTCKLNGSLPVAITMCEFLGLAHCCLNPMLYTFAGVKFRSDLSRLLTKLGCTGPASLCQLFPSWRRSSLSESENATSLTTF

WT CXCR2 = target: T2, WT CXCR2 (Homo sapiens, UniProt P25025); experiment: Label-free DMR agonist response, HEK293T expressing WT CXCR2; format: cell-based
T2 sequence (P25025 1-360): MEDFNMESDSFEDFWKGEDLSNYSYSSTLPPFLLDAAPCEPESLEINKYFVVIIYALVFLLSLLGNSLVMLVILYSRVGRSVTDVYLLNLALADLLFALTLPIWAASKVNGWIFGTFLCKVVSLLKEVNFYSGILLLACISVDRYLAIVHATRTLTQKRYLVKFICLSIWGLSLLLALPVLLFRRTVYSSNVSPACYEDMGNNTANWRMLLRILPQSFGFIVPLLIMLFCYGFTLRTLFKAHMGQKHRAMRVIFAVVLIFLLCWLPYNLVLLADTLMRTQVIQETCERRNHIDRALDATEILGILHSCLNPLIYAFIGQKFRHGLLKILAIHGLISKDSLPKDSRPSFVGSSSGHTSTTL

ΔPDZ CXCR1 = target: T3, ΔPDZ CXCR1 (Homo sapiens, UniProt P25024); experiment: Label-free DMR agonist response, HEK293T expressing ΔPDZ CXCR1; format: cell-based
T3 sequence (P25024 1-346 limits assumed): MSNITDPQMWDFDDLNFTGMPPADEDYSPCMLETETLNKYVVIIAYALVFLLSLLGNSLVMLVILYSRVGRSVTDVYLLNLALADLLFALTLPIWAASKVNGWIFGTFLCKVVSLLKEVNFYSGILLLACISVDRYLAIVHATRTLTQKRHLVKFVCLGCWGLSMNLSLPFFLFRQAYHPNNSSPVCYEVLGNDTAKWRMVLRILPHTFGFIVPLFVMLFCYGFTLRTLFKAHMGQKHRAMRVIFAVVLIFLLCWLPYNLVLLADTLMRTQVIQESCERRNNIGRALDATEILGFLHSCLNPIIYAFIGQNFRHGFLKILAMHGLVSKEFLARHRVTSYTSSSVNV

WT CXCR3 = target: T4, WT CXCR3 (Homo sapiens, UniProt P49682); experiment: Label-free DMR agonist response, HEK293T expressing WT CXCR3; format: cell-based
T4 sequence (P49682 1-368): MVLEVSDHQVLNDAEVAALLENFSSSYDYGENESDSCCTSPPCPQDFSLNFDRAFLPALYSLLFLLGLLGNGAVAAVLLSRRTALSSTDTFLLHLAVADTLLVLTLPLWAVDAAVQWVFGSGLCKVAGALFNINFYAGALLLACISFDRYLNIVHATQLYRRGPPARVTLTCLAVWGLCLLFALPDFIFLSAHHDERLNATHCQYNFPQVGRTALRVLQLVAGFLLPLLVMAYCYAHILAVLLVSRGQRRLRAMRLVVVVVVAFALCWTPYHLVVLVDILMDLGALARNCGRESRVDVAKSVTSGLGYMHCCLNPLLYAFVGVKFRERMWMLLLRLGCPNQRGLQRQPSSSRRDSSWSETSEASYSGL

ΔPDZ CXCR5 = target: T5, ΔPDZ CXCR5 (Homo sapiens, UniProt P32302); experiment: Label-free DMR agonist response, HEK293T expressing ΔPDZ CXCR5; format: cell-based
T5 sequence (P32302 1-368 limits assumed): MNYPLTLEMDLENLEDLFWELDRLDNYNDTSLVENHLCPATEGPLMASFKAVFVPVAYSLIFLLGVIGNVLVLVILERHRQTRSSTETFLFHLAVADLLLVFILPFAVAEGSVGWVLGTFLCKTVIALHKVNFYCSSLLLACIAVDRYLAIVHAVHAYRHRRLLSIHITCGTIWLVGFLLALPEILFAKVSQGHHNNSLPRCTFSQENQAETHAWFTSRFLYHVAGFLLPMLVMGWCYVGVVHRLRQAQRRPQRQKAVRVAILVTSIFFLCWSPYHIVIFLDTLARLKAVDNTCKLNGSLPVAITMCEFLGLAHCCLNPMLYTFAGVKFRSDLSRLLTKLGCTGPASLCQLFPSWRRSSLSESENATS

WT CXCR1 = target: T6, WT CXCR1 (Homo sapiens, UniProt P25024); experiment: Label-free DMR agonist response, HEK293T expressing WT CXCR1; format: cell-based
T6 sequence (P25024 1-350): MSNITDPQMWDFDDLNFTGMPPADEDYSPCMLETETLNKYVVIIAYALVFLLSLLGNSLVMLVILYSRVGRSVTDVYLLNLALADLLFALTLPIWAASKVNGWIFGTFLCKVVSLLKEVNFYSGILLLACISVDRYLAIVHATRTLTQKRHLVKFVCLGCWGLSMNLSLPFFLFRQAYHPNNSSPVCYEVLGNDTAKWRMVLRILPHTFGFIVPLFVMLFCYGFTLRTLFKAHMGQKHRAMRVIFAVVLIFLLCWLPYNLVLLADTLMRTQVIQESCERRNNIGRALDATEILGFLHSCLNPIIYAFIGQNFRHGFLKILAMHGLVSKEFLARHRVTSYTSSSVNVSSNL

ΔPDZ CXCR2 = target: T7, ΔPDZ CXCR2 (Homo sapiens, UniProt P25025); experiment: Label-free DMR agonist response, HEK293T expressing ΔPDZ CXCR2; format: cell-based
T7 sequence (P25025 1-356 limits assumed): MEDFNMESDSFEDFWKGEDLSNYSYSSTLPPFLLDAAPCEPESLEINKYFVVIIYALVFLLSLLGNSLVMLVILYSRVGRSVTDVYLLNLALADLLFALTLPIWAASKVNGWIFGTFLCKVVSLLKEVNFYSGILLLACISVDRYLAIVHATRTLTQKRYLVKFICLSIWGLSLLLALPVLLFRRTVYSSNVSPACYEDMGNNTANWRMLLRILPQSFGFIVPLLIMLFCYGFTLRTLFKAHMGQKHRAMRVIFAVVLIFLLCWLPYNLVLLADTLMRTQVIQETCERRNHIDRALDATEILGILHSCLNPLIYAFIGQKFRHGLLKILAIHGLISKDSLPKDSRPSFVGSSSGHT

ΔPDZ CXCR3 = target: T8, ΔPDZ CXCR3 (Homo sapiens, UniProt P49682); experiment: Label-free DMR agonist response, HEK293T expressing ΔPDZ CXCR3; format: cell-based
T8 sequence (P49682 1-364 limits assumed): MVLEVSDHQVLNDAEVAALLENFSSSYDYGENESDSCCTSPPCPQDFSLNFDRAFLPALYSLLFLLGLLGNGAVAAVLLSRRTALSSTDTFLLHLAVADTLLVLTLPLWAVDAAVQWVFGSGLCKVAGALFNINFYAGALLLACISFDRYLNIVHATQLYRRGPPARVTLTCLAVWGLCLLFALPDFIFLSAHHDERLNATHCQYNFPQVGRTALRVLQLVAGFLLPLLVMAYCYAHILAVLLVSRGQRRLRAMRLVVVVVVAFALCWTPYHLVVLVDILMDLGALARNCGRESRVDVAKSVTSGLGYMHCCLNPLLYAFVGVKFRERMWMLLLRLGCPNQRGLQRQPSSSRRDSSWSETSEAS

Sequence of WT P2RY1 (P47900 whole entry): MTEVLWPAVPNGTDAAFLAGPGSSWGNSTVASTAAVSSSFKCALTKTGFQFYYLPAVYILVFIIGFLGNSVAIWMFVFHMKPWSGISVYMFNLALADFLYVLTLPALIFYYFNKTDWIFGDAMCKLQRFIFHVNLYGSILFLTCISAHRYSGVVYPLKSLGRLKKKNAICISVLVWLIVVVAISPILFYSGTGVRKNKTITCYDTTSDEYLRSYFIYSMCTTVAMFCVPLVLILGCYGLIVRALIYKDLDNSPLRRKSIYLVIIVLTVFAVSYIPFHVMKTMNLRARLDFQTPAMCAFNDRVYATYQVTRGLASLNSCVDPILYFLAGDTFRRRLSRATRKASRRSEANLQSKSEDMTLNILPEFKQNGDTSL
Sequence of ΔPDZ P2RY1 (P47900 1-369 limits assumed, stated change not applied): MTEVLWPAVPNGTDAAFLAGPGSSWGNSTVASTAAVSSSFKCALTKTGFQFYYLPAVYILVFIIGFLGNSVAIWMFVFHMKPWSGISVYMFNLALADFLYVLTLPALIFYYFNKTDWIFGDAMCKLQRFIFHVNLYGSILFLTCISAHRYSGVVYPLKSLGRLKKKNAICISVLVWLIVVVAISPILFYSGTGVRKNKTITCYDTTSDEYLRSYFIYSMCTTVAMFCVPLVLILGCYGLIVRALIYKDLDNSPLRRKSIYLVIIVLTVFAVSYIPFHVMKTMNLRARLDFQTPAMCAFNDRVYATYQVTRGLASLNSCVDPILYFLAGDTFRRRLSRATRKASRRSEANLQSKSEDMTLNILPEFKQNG
Sequence of ΔPDZ P2RY12 (Q9H244 1-338 limits assumed, stated change not applied, one chain of several): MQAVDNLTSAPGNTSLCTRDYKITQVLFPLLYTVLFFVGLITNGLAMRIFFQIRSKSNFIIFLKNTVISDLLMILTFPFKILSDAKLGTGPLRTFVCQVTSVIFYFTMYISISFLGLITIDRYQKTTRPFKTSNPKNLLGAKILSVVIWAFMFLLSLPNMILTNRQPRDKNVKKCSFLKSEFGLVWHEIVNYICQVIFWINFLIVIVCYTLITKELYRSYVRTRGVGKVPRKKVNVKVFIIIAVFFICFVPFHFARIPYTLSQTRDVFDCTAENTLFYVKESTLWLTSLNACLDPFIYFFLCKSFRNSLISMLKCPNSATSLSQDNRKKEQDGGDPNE
Sequence of WT P2RY12 (Q9H244 whole entry, one chain of several): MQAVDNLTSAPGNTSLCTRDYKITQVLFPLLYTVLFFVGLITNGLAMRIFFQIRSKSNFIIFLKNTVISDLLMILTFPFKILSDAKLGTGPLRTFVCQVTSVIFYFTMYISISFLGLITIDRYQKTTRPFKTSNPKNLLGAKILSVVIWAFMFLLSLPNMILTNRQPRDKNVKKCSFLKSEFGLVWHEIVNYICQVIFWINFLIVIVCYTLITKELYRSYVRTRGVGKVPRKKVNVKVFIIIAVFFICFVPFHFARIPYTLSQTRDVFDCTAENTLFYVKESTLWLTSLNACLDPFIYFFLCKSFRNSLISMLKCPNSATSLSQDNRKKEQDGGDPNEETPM

O=c1ccn([C@@H]2O[C@H](COP(=O)(O)OP(=O)(O)OP(=O)(O)O)[C@@H](O)[C@H]2O)c(=O)[nH]1 [UTP]
WT pEC50 (WT P2RY1; HEK293T, WT P2RY1, DMR CRC): −5.39 ± 0.15
WT Max (DMR) (WT P2RY1; HEK293T, WT P2RY1, maximal agonist DMR response): 116.19 ± 2.22
WT TTP (WT P2RY1; HEK293T, WT P2RY1, time to peak DMR): 4.87 s
Agonist potency (in words) (WT P2RY1; P2Y receptors (P2RY1), DMR): micromolar
ΔPDZ pEC50 (ΔPDZ P2RY1; ΔPDZ P2RY1, DMR CRC): −5.69 ± 0.19
ΔPDZ Max (DMR) (ΔPDZ P2RY1; ΔPDZ P2RY1, maximal agonist DMR response): 118.68 ± 10.27
ΔPDZ TTP (ΔPDZ P2RY1; ΔPDZ P2RY1, time to peak DMR): 5.27 s
WT pEC50 (WT P2RY12; HEK293T, WT P2RY12, DMR CRC): −5.47 ± 0.07
WT Max (DMR) (WT P2RY12; HEK293T, WT P2RY12, maximal agonist DMR response): 170.04 ± 2.93
WT TTP (WT P2RY12; HEK293T, WT P2RY12, time to peak DMR): 5.40 s
Agonist potency (in words) (WT P2RY12; P2Y receptors (P2RY12), DMR): micromolar
ΔPDZ pEC50 (ΔPDZ P2RY12; ΔPDZ P2RY12, DMR CRC): −5.70 ± 0.08
ΔPDZ Max (DMR) (ΔPDZ P2RY12; ΔPDZ P2RY12, maximal agonist DMR response): 192.60 ± 6.35
ΔPDZ TTP (ΔPDZ P2RY12; ΔPDZ P2RY12, time to peak DMR): 5.20 s

CNC[C@H](O)c1cccc(O)c1 [phenylephrine]
enhancement of the DMR response (WT ADRA1D; ADRA1D with overexpression of SCRIB alone): ~5 fold
activation, DMR (in words) (WT ADRA1D; WT ADRA1D): weak activation
activation, DMR (in words) (ΔPDZ ADRA1D): weak activation

interleukin-8
WT pEC50 (WT CXCR5; WT CXCR5, DMR CRC): −10.34 ± 0.16
WT Max (DMR) (WT CXCR5; WT CXCR5, maximal agonist DMR response): 23.22 ± 1.80
WT TTP (WT CXCR5; WT CXCR5, time to peak DMR): 2.50 s
WT pEC50 (WT CXCR2; WT CXCR2, DMR CRC): −8.53 ± 0.11
WT Max (DMR) (WT CXCR2; WT CXCR2, maximal agonist DMR response): 34.89 ± 2.08
WT TTP (WT CXCR2; WT CXCR2, time to peak DMR): 3.20 s
ΔPDZ pEC50 (ΔPDZ CXCR1; ΔPDZ CXCR1, DMR CRC): −7.08 ± 0.45
ΔPDZ Max (DMR) (ΔPDZ CXCR1; ΔPDZ CXCR1, maximal agonist DMR response): 9.48 ± 1.53
ΔPDZ TTP (ΔPDZ CXCR1; ΔPDZ CXCR1, time to peak DMR): 3.80 s
WT Max (DMR) (WT CXCR3; WT CXCR3, maximal agonist DMR response): 10.17 ± 2.00
WT TTP (WT CXCR3; WT CXCR3, time to peak DMR): 11.70 s
ΔPDZ pEC50 (ΔPDZ CXCR5; ΔPDZ CXCR5, DMR CRC): −9.97 ± 0.12
ΔPDZ Max (DMR) (ΔPDZ CXCR5; ΔPDZ CXCR5, maximal agonist DMR response): 40.70 ± 2.54
ΔPDZ TTP (ΔPDZ CXCR5; ΔPDZ CXCR5, time to peak DMR): 2.30 s
WT pEC50 (WT CXCR1; WT CXCR1, DMR CRC): −8.29 ± 0.07
WT Max (DMR) (WT CXCR1; WT CXCR1, maximal agonist DMR response): 69.69 ± 1.88
WT TTP (WT CXCR1; WT CXCR1, time to peak DMR): 3.60 s
ΔPDZ pEC50 (ΔPDZ CXCR2; ΔPDZ CXCR2, DMR CRC): −8.45 ± 0.13
ΔPDZ Max (DMR) (ΔPDZ CXCR2; ΔPDZ CXCR2, maximal agonist DMR response): 37.50 ± 2.20
ΔPDZ TTP (ΔPDZ CXCR2; ΔPDZ CXCR2, time to peak DMR): 3.50 s
ΔPDZ Max (DMR) (ΔPDZ CXCR3; ΔPDZ CXCR3, maximal agonist DMR response): 18.3 ± 3.16
ΔPDZ TTP (ΔPDZ CXCR3; ΔPDZ CXCR3, time to peak DMR): 15.60 s
